± gives the uncertainty stated by the source.
Experiment: protein stability index of a GFP-peptide fusion (yeast GPS) (PSI 1-4); higher = more stable; sorted into four equal gates, so the index is relative within each strain
How it was run: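 Sequencing reads from sorted gates were used to score each peptide. The library consisted of tiled 17-residue yeast protein peptides fused downstream of GFP on a Cherry-expressing plasmid, pooled and carried in yeast. Mid-log cultures in leucine-free medium were split into four equal gates by GFP/Cherry ratio, and each gate's plasmids were PCR-amplified and Illumina-sequenced. The protein stability index adds up, over all gates, the read frequency multiplied by the gate number.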

Row | Sequence | protein stability index (doa10∆) | protein stability index (pdr5∆) | protein stability index (san1∆) | protein stability index (ubr1∆)
1 | VVARRSNSANVSSPESE [ITC1] | 3.19 ± 0.05 | 3.35 ± 0.053 | 3.25 ± 0.036 | 3.18 ± 0.035
2 | EYNRLKVQDAIEEEIFD [LIN1] | 2.83 ± 0.057 | 2.31 ± 0.05 | 2.85 ± 0.057 | 2.93 ± 0.055
3 | QLSLDASKTNLRLTDVT [GAL11] | 2.85 ± 0.058 | 3.23 ± 0.066 | 3.06 ± 0.047 | 3.16 ± 0.047
4 | WGVNLPAHTVIIKGTDV [BRR2] | 2.82 ± 0.086 | 2.79 ± 0.13 | 2.32 ± 0.083 | 2.58 ± 0.058
5 | TFRRRNPYNTRSNKIKV [RPL34A] | 1.43 ± 0.04 | 1.81 ± 0.045 | 1.67 ± 0.066 | 1.9 ± 0.04
6 | MKESVVEINSSESDLDE [ESC2] | 3.35 ± 0.071 | 3.06 ± 0.086 | 3.06 ± 0.079 | 3.16 ± 0.068
7 | SEIARTYLLKNDLVKAR [RPN9] | 3.29 ± 0.2 |  | 3.09 ± 0.12 | 
8 | DNSVEQGRRLGESIMSE [MCD1] |  | 3.41 ± 0.22 |  | 3.33 ± 0.12
9 | NAIRIGELFLNESWKSS [SRP72] | 3.39 ± 0.14 | 3.21 ± 0.083 | 2.62 ± 0.14 | 3.12 ± 0.062
10 | KKAVKELYEVDVLKVNT [RPL25] | 3.01 ± 0.069 | 3.09 ± 0.073 | 3.1 ± 0.037 | 3.13 ± 0.049
11 | IPVIALTDLDSPSEFVD [RPS0A] | 2.68 ± 0.095 | 2.69 ± 0.091 | 2.74 ± 0.096 | 2.42 ± 0.06
12 | DIEIVRVNKNAPAVELH [FAS2] | 2.87 ± 0.061 | 3.08 ± 0.064 | 3.24 ± 0.091 | 2.96 ± 0.049
13 | NHNGSALLIEVFTALLR [ITC1] | 1.68 ± 0.074 | 1.38 ± 0.055 | 1.47 ± 0.094 | 1.35 ± 0.053
14 | FEQFEKFYEEKLWFQLS [RPN9] | 3.08 ± 0.27 | 2.58 ± 0.26 |  | 1.72 ± 0.13
15 | GWDSLASRNVWSFYNGN [SNU114] | 2.99 ± 0.12 | 3.12 ± 0.077 | 3.48 ± 0.05 | 3.22 ± 0.066
16 | SRIYKTIKVAGTPLLEV [SNU114] | 2.21 ± 0.052 | 2.38 ± 0.055 | 2.03 ± 0.071 | 2.23 ± 0.053
17 | NMMNQVGEEETSQKMKK [SRP54] | 3.33 ± 0.11 | 3.39 ± 0.12 | 3.33 ± 0.076 | 3.23 ± 0.079
18 | APRQEISEEETTVKPLF [YAR002W/NUP60] | 3.22 ± 0.11 | 3.22 ± 0.11 | 3.23 ± 0.067 | 3.56 ± 0.17
19 | GGLRPFGVSFIYAGYDD [PRE9] | 2.44 ± 0.08 | 2.52 ± 0.075 | 2.26 ± 0.11 | 2.27 ± 0.083
20 | RLFNVVVQDSQTATQLL [SMC2] | 2.94 ± 0.07 | 2.79 ± 0.11 | 2.61 ± 0.1 | 2.44 ± 0.079
21 | KFQETLLRQKIEQCKHP [ISW2] | 1.34 ± 0.068 | 1.47 ± 0.068 | 1.24 ± 0.13 | 1.21 ± 0.063
22 | EDRNQRIKEMYWKLWID [FAS1] | 3.17 ± 0.13 | 3.46 ± 0.1 | 3.16 ± 0.11 | 3.08 ± 0.087
23 | LQGISTLRPRQYATVSK [RPL34A] | 2.59 ± 0.13 | 2.75 ± 0.13 |  | 
24 | SDSEDSDAKEQHQSLSR [ESC2] | 2.81 ± 0.14 | 3.19 ± 0.15 | 3.04 ± 0.084 | 2.52 ± 0.083
25 | NRYAFSQPTNSTTTSLH [SMC4] | 2.44 ± 0.079 | 2.33 ± 0.052 | 2.14 ± 0.11 | 2.26 ± 0.044
26 | PETGDHVVGRIAEVGNK [RRP4] | 3.27 ± 0.076 | 3.44 ± 0.065 | 3.05 ± 0.1 | 3.08 ± 0.15
27 | RGSLDSEHVFDYFFYFL [NUT1] | 2.8 ± 0.059 | 2.59 ± 0.042 | 2.71 ± 0.041 | 3.16 ± 0.032

Row | Sequence | protein stability index (doa10∆) | protein stability index (pdr5∆) | protein stability index (san1∆) | protein stability index (ubr1∆)
28 | MVLYKRKPILLPDPKPL [ITC1] | 2.88 ± 0.067 | 2.85 ± 0.065 | 2.75 ± 0.067 | 2.66 ± 0.055
29 | EIEQLDQYIQKQVQISH [YGL172W/NUP49] | 2.91 ± 0.056 | 3.11 ± 0.05 | 2.75 ± 0.073 | 2.87 ± 0.059
30 | KNFENGPKKNVFYAPNV [RPC34] | 2.99 ± 0.068 | 2.94 ± 0.071 | 2.66 ± 0.084 | 3.14 ± 0.063
31 | QSKKLIEEKLSSFSKKT [YIL149C/MLP2] | 2.9 ± 0.056 | 3 ± 0.049 | 2.98 ± 0.053 | 3.02 ± 0.045
32 | PKDPSNVETYEQILQWV [BRR2] | 2.77 ± 0.079 | 2.48 ± 0.098 | 2.91 ± 0.11 | 2.88 ± 0.12
33 | GVEYRLRLRISRKRNEE [RPL31A] | 1.5 ± 0.12 | 1.26 ± 0.12 |  | 1.18 ± 0.22
34 | APLFKKNSSRPMPPIRG [SMD3] | 2.42 ± 0.059 | 2.29 ± 0.064 | 2.39 ± 0.062 | 2.5 ± 0.061
35 | NRIIKADDHASVQINVA [RPS21A] | 2.89 ± 0.055 | 3.05 ± 0.052 | 2.99 ± 0.052 | 3.11 ± 0.039
36 | EQEQQQQQIIKIRITLT [RPS20] | 2.77 ± 0.057 | 2.86 ± 0.06 | 3.03 ± 0.043 | 3.09 ± 0.061
37 | DITTSIMDNFLERTAIE [RPN1] | 3.21 ± 0.12 | 3.35 ± 0.17 | 3.22 ± 0.086 | 3.28 ± 0.12
38 | ALNSMCASIPIAIIKDT [RRP46] | 1.48 ± 0.12 | 1.67 ± 0.08 | 1.8 ± 0.097 | 1.79 ± 0.073
39 | DWNKRFSHLAGGKIINK [BRR2] | 2.84 ± 0.075 | 3.33 ± 0.14 | 3.12 ± 0.2 | 3 ± 0.089
40 | TMLELLNQLDGFETSKN [RPT6] | 2.92 ± 0.13 | 3.13 ± 0.11 | 2.63 ± 0.2 | 2.84 ± 0.087
41 | CKQFPKLSCIQLNCIDT [SRB8] | 1.54 ± 0.041 | 1.95 ± 0.039 | 1.52 ± 0.043 | 1.66 ± 0.026
42 | NYVAVGDVSNLPYLDEL [QCR2] | 3.13 ± 0.087 | 3.19 ± 0.096 | 2.97 ± 0.099 | 3.18 ± 0.051
43 | PSSEVYSPIEKESPWKI [RRP6] | 2.87 ± 0.15 | 3.03 ± 0.1 | 2.82 ± 0.12 | 3.29 ± 0.11
44 | VGIDTHTATDIYQTLIA [SNF2] | 2.12 ± 0.05 | 2.03 ± 0.048 | 1.85 ± 0.05 | 1.72 ± 0.028
45 | TLPEKKQFDSIFNSNKA [SIR4] | 2.71 ± 0.042 | 2.77 ± 0.045 | 2.82 ± 0.034 | 2.8 ± 0.035
46 | SKSMKFSRRFDCRDVYC [CSN9] | 2.7 ± 0.07 | 2.64 ± 0.09 | 2.58 ± 0.088 | 2.66 ± 0.051
47 | GKVRLWKATYSNEFKCM [YGL100W/SEH1] | 2 ± 0.041 | 1.84 ± 0.053 | 1.78 ± 0.048 | 2.22 ± 0.03
48 | GGFTNLTSQAPQTTQMF [YDL088C/ASM4] | 3.35 ± 0.12 | 3.09 ± 0.091 | 3.38 ± 0.077 | 3.08 ± 0.068
49 | RNSWNFALIDYFYDLDV [BRN1] | 2.18 ± 0.057 | 1.87 ± 0.05 | 1.33 ± 0.093 | 2.06 ± 0.044
50 | PKARQELPTQLALEIIV [RRP46] | 1.77 ± 0.046 | 1.76 ± 0.045 | 1.52 ± 0.11 | 2.07 ± 0.054
51 | TASVEKAEFSKEMTLQK [YIL149C/MLP2] | 3.25 ± 0.15 | 3.44 ± 0.14 | 3.3 ± 0.14 | 3.22 ± 0.13
52 | LLVDQKQLNSLRRSGQI [SMD1] | 2.57 ± 0.047 | 2.79 ± 0.054 | 2.96 ± 0.061 | 2.72 ± 0.051
53 | ALYVLRERIRKGLQIYQ [PRP8] | 2.54 ± 0.24 | 2.85 ± 0.11 | 2.26 ± 0.13 | 2.41 ± 0.29

— the supplement of paper PMC9732359
